In patent US12533321B2, “Polypeptide formulations for oral delivery” (Bhami's Research Laboratory, Pvt. Ltd., priority 2022, dated 2026):
Where two headings read alike, the source gives them in different places. One block for each molecule: values may come before it.

Assays:
[1] = Pharmacokinetics of Semaglutide in albumin crystal sugar truffle shell vs SC, plasma Semaglutide by ELISA; format: in vivo, Wistar Rats; settings: 0.1 mg
Protocol: The semaglutide was processed to prepare albumin microparticles containing semaglutide according to the procedure mentioned under Example 5. The microparticle of albumin crystals containing semaglutide was then lyophilized after washing with cold isopropanol.
Pharmacokinetic analysis was conducted in male Wistar Rats weighing 150 to 250 grams for 1 day. Rats in the oral treatment group was fasted overnight. […] The time of dosage of each animal was noted. […] An antibody, anti-Semaglutide was pre-coated onto a 96-well plate. […] The intensity of the yellow color is proportional to the Semaglutide amount bound on the plate.

[2] = minipig, in vivo, iv
Protocol: Pharmacokinetic analysis was conducted in Female Minipigs weighing 12±1 kg for 2 days. Pigs in the treatment group was fasted overnight prior to the test sample administration. All the test animals in the treatment groups were administered with respective test formulation to the pre-designated animals. The time of dosage of each animal was noted. Blood samples were collected at aforementioned time points 0 min, 5 min, 30 min, 1 hr, 4 hrs, 12 hrs, 24 hrs, and 48 hrs into an EDTA-blood collection tubes for the separation of plasma to determine insulin levels by ELISA. Plasma samples collected at different time points were analyzed by ELISA kit according to ABBEXA protocol. This kit is based on sandwich enzyme-linked immuno-sorbent assay technology. An antibody, anti-insulin was pre-coated onto a 96-well plate. Standards, test samples, and biotin-conjugated reagent were added to the wells and incubated. The HRP-conjugated reagent was then added, and the whole plate was incubated. Unbound conjugates were removed using wash buffer at each stage. TMB substrate was used to quantify the HRP enzymatic reaction. After TMB substrate was added, only wells that contain sufficient INS will produce a blue colored product, which then changes to yellow after adding the acidic stop solution. The intensity of the yellow colour is proportional to the INS amount bound on the plate. The Optical Density (OD) was measured spectrophotometrically at 450 nm in a microplate reader, from which the concentration of INS can be calculated.
(§1) Insulin was analyzed in plasma using a specific enzyme linked immunosorbent assay (ELISA). Pharmacokinetic endpoints were determined using noncompartmental methods using PK Solutions software. AUC was approximated using the trapezoidal rule on the observed concentrations. C max for each Insulin dose was derived as the maximum of all valid concentrations, and t max was then determined as the corresponding time point to C max. The terminal elimination rate constant (λ z) was estimated by log-linear regression on the terminal part of the concentration-time curve, and t ½ was then calculated as t ½=ln 2/λz.

[3] = minipig, in vivo, iv; remark: listed apart in the source
Protocol: Pharmacokinetic analysis was conducted in Female Minipigs weighing 12±1 kg for 2 days. Pigs in the treatment group was fasted overnight prior to the test sample administration. All the test animals in the treatment groups were administered with respective test formulation to the pre-designated animals. The time of dosage of each animal was noted. Blood samples were collected at aforementioned time points 0 min, 5 min, 30 min 1 hr, 4 hrs, 12 hrs, 24 hrs, and 48 hrs into an EDTA-blood collection tubes for the separation of plasma to determine insulin levels by ELISA. Plasma samples collected at different time points were analyzed by ELISA kit according to ABBEXA protocol. This kit is based on sandwich enzyme-linked immuno-sorbent assay technology. An antibody, anti-insulin was pre-coated onto a 96-well plate. Standards, test samples, and biotin-conjugated reagent were added to the wells and incubated. The HRP-conjugated reagent was then added, and the whole plate was incubated. Unbound conjugates were removed using wash buffer at each stage. TMB substrate was used to quantify the HRP enzymatic reaction. After TMB substrate was added, only wells that contain sufficient INS will produce a blue colored product, which then changes to yellow after adding the acidic stop solution. The intensity of the yellow colour is proportional to the INS amount bound on the plate. The Optical Density (OD) was measured spectrophotometrically at 450 nm in a microplate reader, from which the concentration of INS can be calculated.
as §1

- Mean Semaglutide levels ([1]; 0 h, SC): 0.00 ± 0.00 ng/mL
- AUMC 0-inf_obs ([1]; SC): 29775275.74 ng/ml * h^2
- AUMC 0-inf_pred ([1]; SC): 29434343.61 ng/ml * h^2
- AUMC 0-t ([1]; SC): 2165980.669 ng/ml * h^2
- AUMC 0-t/0-inf_obs ([1]; SC): 0.07274
- AUMC 0-t/0-inf_pred ([1]; SC): 0.07359
- AUMC t-inf_obs ([1]; SC): 27609295.07 ng/ml * h^2
- AUMC t-inf_pred ([1]; SC): 27268362.94 ng/ml * h^2
- Clast_obs ([1]; SC): 6808.65 ng/mL
- Clast_pred ([1]; SC): 6725 ng/mL
- Lambda_z ([1]; SC): 0.01894 h⁻¹
- Tlag ([1]; SC): 0 h
- Tlast ([1]; SC): 24 h
- level at 0.25 h ([1]; male, Wistar, rat, plasma, 0.25 h, SC, read-out: Mean Semaglutide levels): 11900 ± 2420 ng/mL
- level at 0.5 h ([1]; male, Wistar, rat, plasma, 0.5 h, SC, read-out: Mean Semaglutide levels): 11200 ± 1470 ng/mL
- level at 1 h ([1]; male, Wistar, rat, plasma, 1 h, SC, read-out: Mean Semaglutide levels): 13100 ± 1670 ng/mL
- level at 2 h ([1]; male, Wistar, rat, plasma, 2 h, SC, read-out: Mean Semaglutide levels): 12600 ± 2930 ng/mL
- level at 4 h ([1]; male, Wistar, rat, plasma, 4 h, SC, read-out: Mean Semaglutide levels): 10300 ± 2790 ng/mL
- level at 8 h ([1]; male, Wistar, rat, plasma, 8 h, SC, read-out: Mean Semaglutide levels): 8560 ± 1420 ng/mL
- level at 24 h ([1]; male, Wistar, rat, plasma, 24 h, SC, read-out: Mean Semaglutide levels): 6810 ± 1730 ng/mL
- MRT inf ([1]; rat, in vivo, sc, SC, read-out: MRT 0-inf_obs): 52.6 h
- MRT inf ([1]; rat, in vivo, sc, SC, read-out: MRT 0-inf_pred): 52.4 h
- MRT last ([1]; rat, in vivo, sc, read-out: MRT 0-t): 10.5 h
Molecule: CC[C@H](C)[C@H](NC(=O)[C@H](Cc1ccccc1)NC(=O)[C@H](CCC(=O)O)NC(=O)[C@H](CCCCNC(=O)COCCOCCNC(=O)COCCOCCNC(=O)CC[C@H](NC(=O)CCCCCCCCCCCCCCCCC(=O)O)C(=O)O)NC(=O)[C@H](C)NC(=O)[C@H](C)NC(=O)[C@H](CCC(N)=O)NC(=O)CNC(=O)[C@H](CCC(=O)O)NC(=O)[C@H](CC(C)C)NC(=O)[C@H](Cc1ccc(O)cc1)NC(=O)[C@H](CO)NC(=O)[C@H](CO)NC(=O)[C@@H](NC(=O)[C@H](CC(=O)O)NC(=O)[C@H](CO)NC(=O)[C@@H](NC(=O)[C@H](Cc1ccccc1)NC(=O)[C@@H](NC(=O)CNC(=O)[C@H](CCC(=O)O)NC(=O)C(C)(C)NC(=O)[C@@H](N)Cc1cnc[nH]1)[C@@H](C)O)[C@@H](C)O)C(C)C)C(=O)N[C@@H](C)C(=O)N[C@@H](Cc1c[nH]c2ccccc12)C(=O)N[C@@H](CC(C)C)C(=O)N[C@H](C(=O)N[C@@H](CCCNC(=N)N)C(=O)NCC(=O)N[C@@H](CCCNC(=N)N)C(=O)NCC(=O)O)C(C)C [Semaglutide]

Molecule: Human Insulin R: Humulin R (insulin human recombinant) U-100, marketed liquid formulation, given IV
- Cl_obs [2]: 0.000 (mg)/(mU/L)/h
- Cl_pred [2]: 0.000 (mg)/(mU/L)/h
- AUC 0-inf_obs ([2]; 0.347 mg): 803.478 mU/L * h
- AUC 0-inf_pred ([2]; 0.347 mg): 800.145 mU/L * h
- AUC t-inf_obs ([2]; 0.347 mg): 20.830 mU/L * h
- AUC t-inf_pred ([2]; 0.347 mg): 17.497 mU/L * h
- AUC(0-t) ([2]; 0.347 mg): 782.648 mU/L * h
- C0 ([2]; 0.347 mg): 105.903 mU/L
- Cmax ([2]; 0.347 mg): 998.596 mU/L
- MRT 0-inf_obs ([2]; 0.347 mg): 1.532 h
- MRT 0-inf_pred ([2]; 0.347 mg): 1.471 h
- MRT 0-t ([2]; 0.347 mg): 1.143 h
- Tmax ([2]; 0.347 mg): 4.8 min
- Vss_obs ([2]; 0.347 mg): 0.001 (mg)/(mU/L)
- Vss_pred ([2]; 0.347 mg): 0.001 (mg)/(mU/L)
- Vz_obs ([2]; 0.347 mg): 0.002 (mg)/(mU/L)
- Vz_pred ([2]; 0.347 mg): 0.002 (mg)/(mU/L)
- t½ ([2]; 0.347 mg): 2.873 h
- Cl_obs [3]: 0.000 (mg)/(mU/L)/h
- Cl_pred [3]: 0.000 (mg)/(mU/L)/h
- AUC 0-inf_obs ([3]; 0.347 mg): 803.478 mU/L * h
- AUC 0-inf_pred ([3]; 0.347 mg): 800.145 mU/L * h
- AUC t-inf_obs ([3]; 0.347 mg): 20.830 mU/L * h
- AUC t-inf_pred ([3]; 0.347 mg): 17.497 mU/L * h
- AUC(0-t) ([3]; 0.347 mg): 782.648 mU/L * h
- C0 ([3]; 0.347 mg): 105.903 mU/L
- Cmax ([3]; 0.347 mg): 998.596 mU/L
- MRT 0-inf_obs ([3]; 0.347 mg): 1.532 h
- MRT 0-inf_pred ([3]; 0.347 mg): 1.471 h
- MRT 0-t ([3]; 0.347 mg): 1.143 h
- Tmax ([3]; 0.347 mg): 4.8 min
- Vss_obs ([3]; 0.347 mg): 0.001 (mg)/(mU/L)
- Vss_pred ([3]; 0.347 mg): 0.001 (mg)/(mU/L)
- Vz_obs ([3]; 0.347 mg): 0.002 (mg)/(mU/L)
- Vz_pred ([3]; 0.347 mg): 0.002 (mg)/(mU/L)
- t½ ([3]; 0.347 mg): 2.873 h
